Laboratory results published in paper PMC8593620.

B1: RNF128 Iso1 (GRAIL): N48A (protein)
parent chain: MGPPPGAGVSCRGGCGFSRLLAWCFLLALSPQAPGSRGAEAVWTAYLNVSWRVPHTGVNRTVWELSEEGVYGQDSPLEPVAGVLVPPDGPGALNACNPHTNFTVPTVWGSTVQVSWLALIQRGGGCTFADKIHLAYERGASGAVIFNFPGTRNEVIPMSHPGAVDIVAIMIGNLKGTKILQSIQRGIQVTMVIEVGKKHGPWVNHYSIFFVSVSFFIITAATVGYFIFYSARRLRNARAQSRKQRQLKADAKKAIGRLQLRTLKQGDKEIGPDGDSCAVCIELYKPNDLVRILTCNHIFHKTCVDPWLLEHRTCPMCKCDILKALGIEVDVEDGSVSLQVPVSNEISNSASSHEEDNRSETASSGYASVQGTDEPPLEEHVQSTNESLQLVNHEANSVAVDVIPHVDNPTFEEDETPNQETAVREIKS
B2: RNF128 Iso1 (GRAIL): N101A (protein)
parent chain: MGPPPGAGVSCRGGCGFSRLLAWCFLLALSPQAPGSRGAEAVWTAYLNVSWRVPHTGVNRTVWELSEEGVYGQDSPLEPVAGVLVPPDGPGALNACNPHTNFTVPTVWGSTVQVSWLALIQRGGGCTFADKIHLAYERGASGAVIFNFPGTRNEVIPMSHPGAVDIVAIMIGNLKGTKILQSIQRGIQVTMVIEVGKKHGPWVNHYSIFFVSVSFFIITAATVGYFIFYSARRLRNARAQSRKQRQLKADAKKAIGRLQLRTLKQGDKEIGPDGDSCAVCIELYKPNDLVRILTCNHIFHKTCVDPWLLEHRTCPMCKCDILKALGIEVDVEDGSVSLQVPVSNEISNSASSHEEDNRSETASSGYASVQGTDEPPLEEHVQSTNESLQLVNHEANSVAVDVIPHVDNPTFEEDETPNQETAVREIKS
B3: RNF128 Iso1 (GRAIL): 3NA (protein)
parent chain: MGPPPGAGVSCRGGCGFSRLLAWCFLLALSPQAPGSRGAEAVWTAYLNVSWRVPHTGVNRTVWELSEEGVYGQDSPLEPVAGVLVPPDGPGALNACNPHTNFTVPTVWGSTVQVSWLALIQRGGGCTFADKIHLAYERGASGAVIFNFPGTRNEVIPMSHPGAVDIVAIMIGNLKGTKILQSIQRGIQVTMVIEVGKKHGPWVNHYSIFFVSVSFFIITAATVGYFIFYSARRLRNARAQSRKQRQLKADAKKAIGRLQLRTLKQGDKEIGPDGDSCAVCIELYKPNDLVRILTCNHIFHKTCVDPWLLEHRTCPMCKCDILKALGIEVDVEDGSVSLQVPVSNEISNSASSHEEDNRSETASSGYASVQGTDEPPLEEHVQSTNESLQLVNHEANSVAVDVIPHVDNPTFEEDETPNQETAVREIKS
B4: RNF128 Iso1 (GRAIL): N59A (protein)
parent chain: MGPPPGAGVSCRGGCGFSRLLAWCFLLALSPQAPGSRGAEAVWTAYLNVSWRVPHTGVNRTVWELSEEGVYGQDSPLEPVAGVLVPPDGPGALNACNPHTNFTVPTVWGSTVQVSWLALIQRGGGCTFADKIHLAYERGASGAVIFNFPGTRNEVIPMSHPGAVDIVAIMIGNLKGTKILQSIQRGIQVTMVIEVGKKHGPWVNHYSIFFVSVSFFIITAATVGYFIFYSARRLRNARAQSRKQRQLKADAKKAIGRLQLRTLKQGDKEIGPDGDSCAVCIELYKPNDLVRILTCNHIFHKTCVDPWLLEHRTCPMCKCDILKALGIEVDVEDGSVSLQVPVSNEISNSASSHEEDNRSETASSGYASVQGTDEPPLEEHVQSTNESLQLVNHEANSVAVDVIPHVDNPTFEEDETPNQETAVREIKS

Assay: immunoblot of steady-state levels, CpA cells
Conditions: glycan lost; control: wild-type Iso1

expression_or_secretion, decreases:
B1
B2
B3
B4
